The results in this text go back to doi:10.1101/2020.05.22.111005 (bioRxiv, 2020).

In the test the target is SARS-CoV-2 RBD fused to mouse Fc (RBD-mFc) (SARS-CoV-2, UniProt P0DTC2). As to the kind of experiment: BLI.

B1: COV2-2196 (human mAb) (antibody, V domains shown)
VH: QMQLVQSGPEVKKPGTSVKVSCKASGFTFMSSAVQWVRQARGQRLEWIGWIVIGSGNTNYAQKFQERVTITRDMSTSTAYMELSSLRSEDTAVYYCAAPYCSSISCNDGFDIWGQGTMVTVSS
VL: not shown
With B1, the binding result is recorded as “binds”.

B2: COV2-2165 (human mAb) (antibody, V domains shown)
VH: EVQLVESGGGLVQPGGSLRLSCAASGLTVRSNYMTWVRQTPGKGLEWVSVIYSGGSTFYADSVKGRFTISRDNSKNTVYLQMNSLRAEDTAVYYCARDLVTYGLDVWGQGTTVTVSS
VL: DIQLTQSPSFLSASVGDRVTITCRASQGISNYLAWYQQKPGTAPNLLIYAASTLQSGVPSRFSGSGSGTEFTLTISSLQPEDFATYYCQLLNSHPLTFGQGTRLEIK
Regarding B2, the binding result is “binds”.
